Laboratory results reported in patent US20260167721A1 (ABLEXIS, published 2026).

Columns and labels:
[1] = target: T1, human CD3 (TCR/CD3 complex) on the cell surface (human, UniProt P07766 23-207; P09693 23-182; P04234 22-171; P20963 22-164); assay: flow cytometry, gMFI Jurkat WT over Jurkat TCRb KO, 1 ug/mL
T1 construct: whole, on cells; also called CD3 on Pan-T cells; CD3 on Jurkat WT cells

[2] = target: T1, human CD3 (TCR/CD3 complex) on the cell …; assay: flow cytometry, Jurkat WT cells, 1 ug/mL
[3] = target: T1, human CD3 (TCR/CD3 complex) on the cell …; assay: flow cytometry, Pan-T cells, 10 ug/mL
[4] = target: T1, human CD3 (TCR/CD3 complex) on the cell …; assay: flow cytometry, Pan-T cells, 1 ug/mL
[5] = target: T1, human CD3 (TCR/CD3 complex) on the cell …; assay: flow cytometry, gMFI Jurkat WT over Jurkat TCRb KO, 10 ug/mL
[6] = target: T1, human CD3 (TCR/CD3 complex) on the cell …; assay: flow cytometry, Jurkat WT cells, 10 ug/mL

T1 sequence (P07766 23-207, chain 1 of 4): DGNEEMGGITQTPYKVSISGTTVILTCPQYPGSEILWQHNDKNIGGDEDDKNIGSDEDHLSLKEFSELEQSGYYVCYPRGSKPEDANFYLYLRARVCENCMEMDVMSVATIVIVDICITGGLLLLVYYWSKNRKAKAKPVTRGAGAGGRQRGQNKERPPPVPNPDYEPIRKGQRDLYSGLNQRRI
T1 sequence (P09693 23-182, chain 2 of 4): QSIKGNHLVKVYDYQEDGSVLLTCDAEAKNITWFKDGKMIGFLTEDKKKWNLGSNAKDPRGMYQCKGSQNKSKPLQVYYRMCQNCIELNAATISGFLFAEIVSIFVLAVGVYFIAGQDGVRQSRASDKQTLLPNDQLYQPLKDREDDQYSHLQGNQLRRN
T1 sequence (P04234 22-171, chain 3 of 4): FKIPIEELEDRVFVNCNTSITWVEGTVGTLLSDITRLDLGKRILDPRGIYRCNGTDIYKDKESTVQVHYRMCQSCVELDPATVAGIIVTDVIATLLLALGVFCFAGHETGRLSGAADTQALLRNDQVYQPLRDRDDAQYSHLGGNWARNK
T1 sequence (P20963 22-164, chain 4 of 4): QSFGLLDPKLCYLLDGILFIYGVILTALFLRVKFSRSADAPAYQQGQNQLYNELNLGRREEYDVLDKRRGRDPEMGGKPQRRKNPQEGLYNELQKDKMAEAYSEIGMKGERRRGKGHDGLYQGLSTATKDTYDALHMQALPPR

| Binder | Jurkat WT/KO (Fold) [1] [fold] | gMFI [2] [gMFI] | % Positive [3] [%] | gMFI [3] [gMFI] | % Positive [4] [%] | gMFI [4] [gMFI] | Jurkat WT/KO (Fold) [5] [fold] | gMFI [6] [gMFI] |
| --- | --- | --- | --- | --- | --- | --- | --- | --- |
| CD3 × CD33-BspAb44 (bispecific antibody) chain 1: EVQLVESGGGLVKPGGSLRLSCAASGFTFSRYSMNWVRQAPGKCLKWVSSISSSGSYKYYADSVKGRFTISRDNAKNSLYLQMNSLRAEDTAVYYCAREPPTLGMDYWGQGTLVTVSSGGGGSGGGGSGGGGSGGGGSNFMLTQPHSVSESPGKTVTISCTRSSGSIASNYVQWYQQRPGSSPTTVIYEDNQRPSGVPDRFSGSIDSSSNSASLTISGLKTEDEADYYCQSFDNSNRVFGCGTKLTVLDKTHTCPPCPAPEFEGGPSVFLFPPKPKDTLMISRTPEVTCVVVDVSHEDPEVKFNWYVDGVEVHNAKTKPREEQYNSTYRVVSVLTVLHQDWLNGKEYKCKVSNKALPASIEKTISKAKGQPREPQVYTLPPCREEMTKNQVSLWCLVKGFYPSDIAVEWESNGQPENNYKTTPPVLDSDGSFFLYSKLTVDKSRWQQGNVFSCSVMHEALHNHYTQKSLSLSPGK chain 2: EVQLVQSGAEVKKPGSSVKVSCKASGYTITDSNIHWVRQAPGQSLEWIGYIYPYNGGTDYNQKFKNRATLTVDNPTNTAYMELSSLRSEDTAFYYCVNGNPWLAYWGQGTLVTVSSASTKGPSVFPLAPSSKSTSGGTAALGCLVKDYFPEPVTVSWNSGALTSGVHTFPAVLQSSGLYSLSSVVTVPSSSLGTQTYICNVNHKPSNTKVDKRVEPKSCDKTHTCPPCPAPEFEGGPSVFLFPPKPKDTLMISRTPEVTCVVVDVSHEDPEVKFNWYVDGVEVHNAKTKPREEQYNSTYRVVSVLTVLHQDWLNGKEYKCKVSNKALPASIEKTISKAKGQPREPQVCTLPPSREEMTKNQVSLSCAVKGFYPSDIAVEWESNGQPENNYKTTPPVLDSDGSFFLVSKLTVDKSRWQQGNVFSCSVMHEALHNRFTQKSLSLSPGK chain 3: DIQLTQSPSTLSASVGDRVTITCRASESLDNYGIRFLTWFQQKPGKAPKLLMYAASNQGSGVPSRFSGSGSGTEFTLTISSLQPDDFATYYCQQTKEVPWSFGQGTKVEVKRTVAAPSVFIFPPSDEQLKSGTASVVCLLNNFYPREAKVQWKVDNALQSGNSQESVTEQDSKDSTYSLSSTLTLSKADYEKHKVYACEVTHQGLSSPVTKSFNRGEC | 13.1 | 57500 | 99.5 | 508000 | 99.5 | 475000 | 12.9 | 54200 |
| CD3 × CD33-BspAb48 (bispecific antibody) chain 1: QVTLKESGPGILQPSQTLSLTCSFSGFSLSTFGMGVGWIRQPSGKCLEWLAHIWWDDDKYYNPALKSRLTISKDTSKNQVFLKIANVDTADTATYYCARLGYYPYWFFDVWGTGTTVTVSSGGGGSGGGGSGGGGSGGGGSNFMLTQPHSVSESPGKTVTIACTRSSGSIASNYVQWYQQRPGSSPTTVIYEDNQRPSGVPDRFSGSIDSSSNSASLTISGLKTEDEADYYCQSYDSSNQVFGCGTKLTVLDKTHTCPPCPAPEFEGGPSVFLFPPKPKDTLMISRTPEVTCVVVDVSHEDPEVKFNWYVDGVEVHNAKTKPREEQYNSTYRVVSVLTVLHQDWLNGKEYKCKVSNKALPASIEKTISKAKGQPREPQVYTLPPCREEMTKNQVSLWCLVKGFYPSDIAVEWESNGQPENNYKTTPPVLDSDGSFFLYSKLTVDKSRWQQGNVFSCSVMHEALHNHYTQKSLSLSPGK chain 2: EVQLVQSGAEVKKPGSSVKVSCKASGYTITDSNIHWVRQAPGQSLEWIGYIYPYNGGTDYNQKFKNRATLTVDNPTNTAYMELSSLRSEDTAFYYCVNGNPWLAYWGQGTLVTVSSASTKGPSVFPLAPSSKSTSGGTAALGCLVKDYFPEPVTVSWNSGALTSGVHTFPAVLQSSGLYSLSSVVTVPSSSLGTQTYICNVNHKPSNTKVDKRVEPKSCDKTHTCPPCPAPEFEGGPSVFLFPPKPKDTLMISRTPEVTCVVVDVSHEDPEVKFNWYVDGVEVHNAKTKPREEQYNSTYRVVSVLTVLHQDWLNGKEYKCKVSNKALPASIEKTISKAKGQPREPQVCTLPPSREEMTKNQVSLSCAVKGFYPSDIAVEWESNGQPENNYKTTPPVLDSDGSFFLVSKLTVDKSRWQQGNVFSCSVMHEALHNRFTQKSLSLSPGK chain 3: DIQLTQSPSTLSASVGDRVTITCRASESLDNYGIRFLTWFQQKPGKAPKLLMYAASNQGSGVPSRFSGSGSGTEFTLTISSLQPDDFATYYCQQTKEVPWSFGQGTKVEVKRTVAAPSVFIFPPSDEQLKSGTASVVCLLNNFYPREAKVQWKVDNALQSGNSQESVTEQDSKDSTYSLSSTLTLSKADYEKHKVYACEVTHQGLSSPVTKSFNRGEC | 1.1 | 2260 | 82.2 | 12200 | 3.4 | 2870 | 2.5 | 5170 |
